Results: patent US20230265151A1, “GIP/GLP1 CO-AGONIST COMPOUNDS” (priority 2020, published 2023)
Where a chain is given by its changes, count along the chain named. *1 amine or outer side, *2 acyl side, *3 side chain or, on linkers, in order; H or OH if unused. Where no end group is shown, it is not given here. Side-chain parts run from the residue outwards. [ ]: non-standard residue; d: D form. The star is where a group is joined. αMePhe(2-F) = C[C@](N)(Cc1ccccc1F)C(=O)O; γGlu = O=C(O)[C@H](CCC(=O)[*:2])N[*:1]; C14 diacid = O=C(O)CCCCCCCCCCCCC(=O)*; αMeY = C[C@](N)(Cc1ccc(O)cc1)C(=O)O; αMeF = C[C@](N)(Cc1ccccc1)C(=O)O; αMeL = CC(C)C[C@](C)(N)C(=O)O; Orn = NCCC[C@H](N)C(=O)O; AEEA = NCCOCCOCC(=O)O; Aib = CC(C)(N)C(=O)O

T1: human GIP receptor (human, UniProt P48546 22-466)
T1 sequence (looked up): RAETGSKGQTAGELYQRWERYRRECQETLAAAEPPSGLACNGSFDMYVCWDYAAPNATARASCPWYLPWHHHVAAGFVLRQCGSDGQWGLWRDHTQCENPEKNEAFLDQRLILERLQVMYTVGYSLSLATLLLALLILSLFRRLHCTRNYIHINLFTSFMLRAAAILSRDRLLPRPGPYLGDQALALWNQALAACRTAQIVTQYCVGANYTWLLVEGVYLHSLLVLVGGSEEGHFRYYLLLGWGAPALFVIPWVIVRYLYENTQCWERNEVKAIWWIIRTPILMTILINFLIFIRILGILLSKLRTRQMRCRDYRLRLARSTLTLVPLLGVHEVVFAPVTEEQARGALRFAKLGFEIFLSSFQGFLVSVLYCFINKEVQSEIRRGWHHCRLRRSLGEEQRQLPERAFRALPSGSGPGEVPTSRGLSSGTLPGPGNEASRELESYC

B1: Example 83 (peptide)
peptide: YXEGTXTSDXSIXLDXKAQXEFIKXLIEGGPSSGAPPPS
modifications: Aib2, αMeF(2F)6, 4Pal10, αMeL13, Orn16, Aib20, αMeF25, K17 and K24: K(AEEA2-(γ-Glu)-CO-(CH2)12-CO2H), C-terminal NH2
B2: Example 5 (peptide)
peptide: B1 peptide with K24X, P31K
modifications: Aib2, αMeF(2F)6, 4Pal10, αMeL13, Orn16, Aib20, D-Glu24, αMeY25, K17 and K31: K(AEEA2-(γ-Glu)-CO-(CH2)10-CH3), C-terminal NH2
B3: Example 85 (peptide)
peptide: B1 peptide with F22X, X25Y
modifications: Aib2, αMeF(2F)6, 4Pal10, αMeL13, Orn16, Aib20, αMeF22, K17 and K24: K(AEEA2-(γ-Glu)-CO-(CH2)12-CO2H), C-terminal NH2
B4: Example 92 (peptide)
peptide: B1 peptide with X10V, F22X, K24X, P31K
modifications: Aib2, αMeF(2F)6, αMeL13, Orn16, Aib20, αMeF22, D-Glu24, αMeY25, K17 and K31: K(AEEA2-(γ-Glu)-CO-(CH2)12-CO2H), C-terminal NH2
B5: Example 99 (peptide)
peptide: B1 peptide with F22X, K24X, P31K
modifications: Aib2, αMeF(2F)6, 4Pal10, αMeL13, Orn16, Aib20, 2Nal22, D-Glu24, αMeY25, K17 and K31: K(AEEA2-(γ-Glu)-CO-(CH2)12-CO2H), C-terminal NH2
B6: Example 97 (peptide)
peptide: B1 peptide with K24X, P31K
modifications: Aib2, αMeF(2F)6, ChG10, αMeL13, Orn16, Aib20, D-Glu24, αMeY25, K17 and K31: K(AEEA2-(γ-Glu)-CO-(CH2)12-CO2H), C-terminal NH2
B7: Example 98 (peptide)
peptide: B1 peptide with K24X, P31K
modifications: Aib2, αMeF(2F)6, ChA10, αMeL13, Orn16, Aib20, D-Glu24, αMeY25, K17 and K31: K(AEEA2-(γ-Glu)-CO-(CH2)12-CO2H), C-terminal NH2
B8: Example 101 (peptide)
peptide: B1 peptide with X16G, K24X, P31K
modifications: Aib2, αMeF(2F)6, 4Pal10, αMeL13, Aib20, D-Glu24, αMeY25, K17 and K31: K(AEEA2-(γ-Glu)-CO-(CH2)12-CO2H), C-terminal NH2
B9: Example 9 (peptide)
peptide: B1 peptide with K24X, P31K
modifications: Aib2, αMeF(2F)6, 4Pal10, αMeL13, Orn16, Aib20, D-Glu24, αMeY25, K17 and K31: K(AEEA2-CO-(CH2)12-CO2H), C-terminal NH2
B10: Example 104 (peptide)
peptide: B1 peptide with K24G, P31K
modifications: Aib2, αMeF(2F)6, 4Pal10, αMeL13, Orn16, Aib20, αMeY25, K17 and K31: K(AEEA2-(γ-Glu)-CO-(CH2)12-CO2H), C-terminal NH2
B11: Example 87 (peptide)
peptide: B1 peptide with K24X, P31K
modifications: Aib2, αMeF(2F)6, αMeF(2F)10, αMeL13, Orn16, Aib20, D-Glu24, αMeY25, K17 and K31: K(AEEA2-(γ-Glu)-CO-(CH2)12-CO2H), C-terminal NH2
B12: Example 95 (peptide)
peptide: B1 peptide with K24X, P31K
modifications: Aib2, αMeF(2F)6, Ac4c10, αMeL13, Orn16, Aib20, D-Glu24, αMeY25, K17 and K31: K(AEEA2-(γ-Glu)-CO-(CH2)12-CO2H), C-terminal NH2
B13: Example 96 (peptide)
peptide: B1 peptide with K24X, P31K
modifications: Aib2, αMeF(2F)6, 4CPhe10, αMeL13, Orn16, Aib20, D-Glu24, αMeY25, K17 and K31: K(AEEA2-(γ-Glu)-CO-(CH2)12-CO2H), C-terminal NH2
B14: Example 88 (peptide)
peptide: B1 peptide with F22X, K24X, P31K
modifications: Aib2, αMeF(2F)6, 4Pal10, αMeL13, Orn16, Aib20, αMeF(2F)22, D-Glu24, αMeY25, K17 and K31: K(AEEA2-(γ-Glu)-CO-(CH2)12-CO2H), C-terminal NH2
B15: Example 90 (peptide)
peptide: B1 peptide with X10V, K24X, P31K
modifications: Aib2, αMeF(2F)6, αMeL13, Orn16, Aib20, D-Glu24, αMeY25, K17 and K31: K(AEEA2-(γ-Glu)-CO-(CH2)12-CO2H), C-terminal NH2
B16: Example 84 (peptide)
peptide: B1 peptide with F22X
modifications: Aib2, αMeF(2F)6, 4Pal10, αMeL13, Orn16, Aib20, αMeF22, αMeF25, K17 and K24: K(AEEA2-(γ-Glu)-CO-(CH2)12-CO2H), C-terminal NH2
B17: Example 105 (peptide)
peptide: B1 peptide with X10K, K17I, E21K, K24X
modifications: Aib2, αMeF(2F)6, αMeL13, Orn16, Aib20, D-Glu24, αMeY25, K10 and K21: K(AEEA2-(γ-Glu)-CO-(CH2)12-CO2H), C-terminal NH2
B18: Example 89 (peptide)
peptide: B1 peptide with S11X, K24X, P31K
modifications: Aib2, αMeF(2F)6, 4Pal10, Aib11, αMeL13, Orn16, Aib20, D-Glu24, αMeY25, K17 and K31: K(AEEA2-(γ-Glu)-CO-(CH2)12-CO2H), C-terminal NH2
B19: Example 86 (peptide)
peptide: B1 peptide with K17Q, K24X, E28K, P31K
modifications: Aib2, αMeF(2F)6, 4Pal10, αMeL13, Orn16, Aib20, D-Glu24, αMeY25, K28 and K31: K(AEEA2-(γ-Glu)-CO-(CH2)12-CO2H), C-terminal NH2
B20: Example 94 (peptide)
peptide: B1 peptide with F22X, K24X, P31K
modifications: Aib2, αMeF(2F)6, Ac5c10, αMeL13, Orn16, Aib20, αMeF22, D-Glu24, αMeY25, K17 and K31: K(AEEA2-(γ-Glu)-CO-(CH2)12-CO2H), C-terminal NH2
B21: Example 103 (peptide)
peptide: B1 peptide with E21G, K24X, P31K
modifications: Aib2, αMeF(2F)6, 4Pal10, αMeL13, Orn16, Aib20, D-Glu24, αMeY25, K17 and K31: K(AEEA2-(γ-Glu)-CO-(CH2)12-CO2H), C-terminal NH2
B22: Example 93 (peptide)
peptide: Y[Aib]EGT[αMePhe(2-F)]TSDV[Aib]I[αMeL]LD[Orn]K([AEEA-AEEA-γGlu-C14 diacid])AQ[Aib]E[αMeF]I[dE][αMeY]LIEGGK([AEEA-AEEA-γGlu-C14 diacid])SSGAPPPS-NH2
B23: Example 106 (peptide)
peptide: Y[Aib]EGT[αMePhe(2-F)]TSDK([AEEA-AEEA-γGlu-C14 diacid])SI[αMeL]LD[Orn]IAQ[Aib]EFIK([AEEA-AEEA-γGlu-C14 diacid])[αMeY]LIEGGPSSGAPPPS-NH2

molecular target: human glucagon receptor (human, UniProt P47871 26-477); assay: cell-based or functional assay

Row | Binder | EC50, cAMP
1 | B1 | > 9950 nM
2 | B2 | > 9150 nM
3 | B3 | > 9950 nM
4 | B4 | > 9950 nM
5 | B5 | > 9950 nM
6 | B6 | > 9950 nM
7 | B7 | > 9950 nM
8 | B8 | > 9950 nM
9 | B9 | > 9950 nM
10 | B10 | > 9950 nM
11 | B11 | > 9950 nM
12 | B12 | > 9950 nM
13 | B13 | > 9950 nM
14 | B14 | > 9950 nM
15 | B15 | > 9950 nM
16 | B16 | > 9950 nM
17 | B17 | > 9950 nM
18 | B18 | > 9950 nM
19 | B19 | > 9950 nM
20 | B20 | > 9950 nM
21 | B21 | > 9950 nM
22 | B22 | > 9950 nM
23 | B23 | > 9950 nM

molecular target: T1, human GIP receptor; assay: cell-based or functional assay

Row | Binder | EC50, cAMP | Emax, cAMP
24 | B1 | 0.0223 nM | 89.6%
25 | B2 | 0.00585 nM | 
26 | B3 | 0.0312 nM | 91.7%
27 | B4 | 0.0251 nM | 
28 | B5 | 0.0235 nM | 
29 | B6 | 0.0276 nM | 
30 | B7 | 0.0148 nM | 
31 | B8 | 0.0297 nM | 92.1%
32 | B9 | 0.0102 nM | 
33 | B10 | 0.0361 nM | 94.9%
34 | B11 | 0.029 nM | 84.7%
35 | B12 | 0.0748 nM | 
36 | B13 | 0.0484 nM | 
37 | B14 | 0.00884 nM | 85.1%
38 | B15 | 0.0436 nM | 93%
39 | B16 | 0.0315 nM | 98.5%
40 | B17 | 0.0366 nM | 
41 | B18 | 0.0301 nM | 88.9%
42 | B19 | 0.0184 nM | 94.2%
43 | B20 | 0.0132 nM | 
44 | B21 | 0.0305 nM | 92.8%
45 | B22 | 0.0448 nM | 99.4%
46 | B23 | 0.0385 nM | 98.7%

molecular target: human GLP-1 receptor (human, UniProt P43220 24-463); assay: cell-based or functional assay

Row | Binder | EC50, cAMP | Emax, cAMP
47 | B1 | 0.451 nM | 
48 | B2 | 0.057 nM | 
49 | B3 | 7.69 nM | 95.3%
50 | B4 | 0.942 nM | 
51 | B5 | 0.349 nM | 
52 | B6 | 0.683 nM | 
53 | B7 | 0.227 nM | 
54 | B8 | 2.94 nM | 
55 | B9 | 0.421 nM | 
56 | B10 | 0.417 nM | 
57 | B11 | 1.34 nM | 
58 | B12 | 0.181 nM | 
59 | B13 | 6.81 nM | 
60 | B14 | 6.08 nM | 97.1%
61 | B15 | 0.221 nM | 96.2%
62 | B16 | 5.27 nM | 94%
63 | B17 | 0.52 nM | 
64 | B18 | 1.03 nM | 
65 | B19 | 0.359 nM | 
66 | B20 | 2.1 nM | 97.4%
67 | B21 | 2.1 nM | 
68 | B22 | 0.575 nM | 
69 | B23 | 0.296 nM | 
